Experimental data as given in article doi:10.1101/820381v1 (biorxiv, 2019).
Each block holds one compound with its values, some of them ahead of it.

Columns and labels:
[1] = target: T1, OPR3 (12-oxophytodienoic acid reductase 3) (Arabidopsis thaliana, UniProt Q9FUP0); experiment: intrinsic Trp fluorescence quenching; assay type: binding; conditions: 0.75 µmol/L OPR3, 40 mmol/L KPi pH 7.2, 25°C
[2] = target: T1, OPR3 (12-oxophytodienoic acid reductase 3); conditions: NADPH co-substrate, 40 mmol/L KPi pH 7.2, 25°C, aerobic
[3] = system: CC/C=C\C[C@@H]1C(=O)C=C[C@@H]1CCCCCCCC(=O)O; experiment: purified protein; conditions: pH 7.2; 25.0 °C
[4] = system: O=C1C=CCC1; experiment: purified protein; conditions: pH 7.2; 25.0 °C
[5] = system: [O]C1=C(O)[C@@H]([C@@H](O)CO)OC1=O; experiment: purified protein; conditions: pH 7.8

T1 sequence (Q9FUP0 whole entry): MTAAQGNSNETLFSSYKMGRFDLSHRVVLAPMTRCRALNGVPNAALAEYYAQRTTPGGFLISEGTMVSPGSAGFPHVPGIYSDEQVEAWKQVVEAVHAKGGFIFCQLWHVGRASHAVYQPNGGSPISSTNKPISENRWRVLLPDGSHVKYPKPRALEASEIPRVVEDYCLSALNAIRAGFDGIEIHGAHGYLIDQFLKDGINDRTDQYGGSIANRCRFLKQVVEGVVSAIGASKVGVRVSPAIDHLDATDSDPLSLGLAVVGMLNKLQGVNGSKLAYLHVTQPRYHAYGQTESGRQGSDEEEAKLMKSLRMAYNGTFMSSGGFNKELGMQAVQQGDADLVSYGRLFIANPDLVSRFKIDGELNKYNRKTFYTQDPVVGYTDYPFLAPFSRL

- % quenching at 607 μmol/L [1]: 54.0±0.4%
Compound: CC/C=C\C[C@@H]1C(=O)C=C[C@@H]1CCCCCCCC(=O)O [12-OPDA]

Compound: C=CC(C)=O [MVK]
- Km [2]: 38.5 ± 14 µM

Compound: OPR3 (12-oxophytodienoic acid reductase 3) (Arabidopsis thaliana)
- Km [3]: 28.3 ± 8.5 µM
- Km [4]: 1967 ± 825 µM
- Km [5]: 1 µM
